Assay results taken from article PMC11554683, “GNG5 is a novel regulator of Aβ42 production in Alzheimer’s disease” (Cell Death & Disease, 2024).

Target: the molecule itself
Experiment: western blot (band sizes); recombinant GNG5 (purity >95%) used to assess anti-GNG5 antibodies (Fig. S3B)

B1: recombinant GNG5 (G protein subunit gamma 5) (natural protein, UniProt P63218 1-68, looked up)
chain: MSGSSSVAAMKKVVQQLRLEAGLNRVKVSQAAADLKQFCLQNAQHDPLLTGVSSSTNPFRPQKVCSFL
notes: G protein subunit gamma 5 (GNG5); Purity >95% is stated; also called purified GNG5; homotrimer-GNG5; source: E. coli BL21 (DE3), purified (HisTrap HP, PD-10)
With B1 the “stoichiometry N” value was 3.
